The values that follow come from patent publication US20250295687A1, “TREM COMPOSITIONS AND METHODS OF USE FOR TREATING PROLIFERATIVE DISORDERS” (Flagship Pioneering Innovations VI, LLC, priority 2022, published 2025).

The subject of series [1] is nonsense mutation in TP53 (R196X; Arg→TGA) in Calu-6 lung carcinoma cells. The series is described as follows: Western blot of full-length p53 after PTC readthrough in Calu-6 cells (Example 6). Format: cell-based. Particulars: for PTC suppression / production of full-length p53 protein: 48 hours, Western blotting (FIGS. 1-3). As to the method:
Calu-6 is a lung cancer cell line known to harbor a nonsense mutation in TP53 (R196X; Arg→TGA) that results in a premature termination codon (PTC). To test PTC readthrough of the TREM, cells were treated with Arg-TGA, Ser-TGA, or Ser-TAG TREMs or with known translational read-through inducing drugs (RIDs).
(§1) To monitor the ability of the TREMs to readthrough the PTC mutation, the expression of TP53 was assessed by Western blotting 48 hours post-TREM delivery into the cells. Cells were washed once with phosphate buffered saline (PBS) and lysed with 100 uL of RIPA buffer (50 mM Tris, pH 8.0, 150 mM NaCl, 1% Nonidet-P40 (NP-40), 0.5% Deoxycholate, 0.1% sodium dodecyl sulfate (SDS)) supplemented with protease inhibitor, for 30 min at 4° C. The protein extracts were then centrifuged at 21,000 g for 15 min and the supernatant was transferred into clean tubes. Protein concentration was determined using a BCA Protein Assay Kit according to the manufacturer's instructions. 20 μg of total protein were loaded into an SDS-PAGE gel and transferred onto nitrocellulose membranes after electrophoresis. The membranes were probed with anti-p53, anti-p21, and anti-β-tubulin antibodies.
In general terms: In western blotting, separated proteins are transferred to a membrane and probed.

Series [2] has as its system NanoLuc with a TGA PTC. Briefly: In vivo PTC readthrough of NanoLuc TGA reporter by hydrodynamic gene delivery (FIG. 5B). Set-up: species or system mouse. The procedure:
Hydrodynamic gene delivery (HGD) is a simple, fast, safe, and effective method for delivering transgenes in rodent models. A set of plasmids expressing both an eGFP-Luc-TGA reporter and a TREM were designed. To evaluate tolerability and determine optimal plasmid concentration for maximum TREM delivery to the liver, the eGFP-WT Luc plasmid was administered to adult CD-1 mice via tail vein hydrodynamic injection at three doses: 10 μg, 30 μg, and 50 μg. […] Next, 50 μg of DNA in saline […] was administered to mice via tail vein hydrodynamic injection to assess target engagement and PTC readthrough using either 1) eGFP-Nluc TGA reporter plasmid (PL-854), or 2) eGFP-Nluc WT reporter (PL1202), or 3) all-in-one plasmid eGFP-Nluc-TGA reporter with S-TAG (PL-1216), or 4) all-in-one plasmid eGFP-Nluc-TGA reporter with R-TGA (PL-1215).

The test system of series [3] is p21 (downstream transcriptional target of p53) in Calu-6 cells. The series is described as follows: Western blot of p21 protein levels in Calu-6 cells (p53 functional rescue). Format: cell-based. The procedure: Calu-6 is a lung cancer cell line known to harbor a nonsense mutation in TP53 (R196X; Arg→TGA) that results in a premature termination codon (PTC). To test PTC readthrough of the TREM, cells were treated with Arg-TGA, Ser-TGA, or Ser-TAG TREMs or with known translational read-through inducing drugs (RIDs). Briefly, 6×10^5 cells were seeded into a 6-well plate and transfected with […] of TREM in 15 uL of RNAiMAX+800 uL OptiMEM; 0.5 or 5 mg/mL G418, an aminoglycoside antibiotic; or Ataluren, a TRID that is approved for the treatment of DMD in Europe at the reported maximally effective dose of 10 uM.
as §1
To determine whether the rescued p53 protein was functional, cellular p21 protein levels were measured (FIG. 4). p21 is a downstream transcriptional target and well-established biomarker of p53 activity.

For the molecule `CN[C@@H]1[C@@H](O)[C@@H](O[C@@H]2[C@@H](O)[C@H](O[C@H]3O[C@H]([C@@H](C)O)[C@@H](O)[C@H](O)[C@H]3N)[C@@H](N)C[C@H]2N)OC[C@]1(C)O` [G418, reference compound], in series [1] (Calu-6 cells), the “rescue of TP53 mRNA levels / expression of truncated p53 protein” value is “more effective in rescuing mRNA levels” and the “PTC suppression / production of full-length p53 protein” value (from here on “PTC suppression / production”) is listed as “marginally increased”. Further, the “percentage of full-length p53 out of the total p53 protein” value in series [1] (Calu-6 cells treated with 0.5 mg/mL) is “about 30%”. For the same molecule, the “percentage of full-length p53 out of the total p53 protein” value in series [1] (Calu-6 cells treated with 5 mg/mL) was “about 30%”.

Take `O=C(O)c1cccc(-c2noc(-c3ccccc3F)n2)c1` [Ataluren, reference compound]: in series [1] (Calu-6 cells treated with 10 μM), the “percentage of full-length p53 out of the total p53 protein” value was “about 0%”. Moreover, in series [1] (Calu-6 cells), the “PTC suppression / production” value was “ineffective”.

B1: Arg-TGA: arginine non-cognate TREM: sequence of ARG-UCU-TREM body but with anticodon UCA instead of UCU (nucleic acid)
chain: GGCUCCGUGGCGCAAUGGAUAGCGCAUUGGACUUCAAAUUCAAAGGUUCCGGGUUCGAGUCCCGGCGGAGUCGCCA
modifications: listed as RNA, chemistry not fully specified
Turning to B1, the “increase in luciferase signal compared to controls” value in series [2] (mice, 50 μg of DNA in saline, tail vein hydrodynamic injection, all-in-one plasmid eGFP-Nluc-TGA reporter (FIG. 5B)) was roughly 1000 fold. Also, the “total flux signal in the liver” value in series [2] (mouse, hydrodynamic delivery of plasmid (FIG. 5B)) is listed as “about 2×10^9 p/s”. The “percentage of full-length p53 of the total p53 protein” value in series [1] (Calu-6 cells treated with 100 nM) is “about 95%”. Further, the “full-length p53 levels increase relative to cells treated with SEQ ID NO:623” value in series [1] (Calu-6 cells, 100 nM TREM, vs 100 nM SEQ ID NO:623) is listed as “about 55 fold”. In series [1] (Calu-6 cells, 100 nM TREM, vs 100 nM SEQ ID NO:625), the “full-length p53 levels increase relative to cells treated with SEQ ID NO:625” value is “about 11 fold”. Besides, the “full-length p53 levels increase relative to cells treated with Ataluren” value in series [1] (Calu-6 cells, 100 nM TREM, vs 10 μM Ataluren) was “about 55 fold”. Further, the “full-length p53 levels increase relative to cells treated with 0.5 mg/mL G418” value in series [1] (Calu-6 cells, 100 nM TREM, vs 0.5 mg/mL G418) was “about 55 fold”. Moreover, the “full-length p53 levels increase relative to cells treated with 5 mg/mL G418” value in series [1] (Calu-6 cells, 100 nM TREM, vs 5 mg/mL G418) was “about 14 fold”. Moreover, the “full-length p53 levels increase relative to mock-transfected cells” value in series [1] (Calu-6 cells, 100 nM TREM, vs mock-transfected cells) is reported as “about 55 fold”. In addition, the “full-length p53 levels increase relative to untreated cells” value in series [1] (Calu-6 cells, 100 nM TREM, vs untreated cells) was “about 55 fold”. The “total p53 that was full length (FIG. 3)” value in series [1] (Calu-6 cells, 48 hours post-TREM delivery, Western blotting) was “about 90%”. For the same molecule, in series [1] (Calu-6 cells), the “PTC suppression / production” value was “robustly induce PTC suppression”. Further, the “p21 levels increase relative to cells treated with SEQ ID NO:623” value in series [3] (100 nM TREM, vs 100 nM SEQ ID NO:623) is on record as “about 60 fold”. For the same molecule, the “p21 levels increase relative to cells treated with SEQ ID NO:625” value in series [3] (100 nM TREM, vs 100 nM SEQ ID NO:625) is “about 30 fold”. Moreover, the “p21 levels increase relative to cells treated with Ataluren” value in series [3] (100 nM TREM, vs 10 μM Ataluren) is given as “about 60 fold”. Besides, the “p21 levels increase relative to cells treated with 0.5 mg/mL G418” value in series [3] (100 nM TREM, vs 0.5 mg/mL G418) is recorded as “about 60 fold”. In addition, the “p21 levels increase relative to cells treated with 5 mg/mL G418” value in series [3] (100 nM TREM, vs 5 mg/mL G418) is “about 60 fold”. For the same molecule, the “p21 levels increase relative to mock-transfected cells” value in series [3] (100 nM TREM, vs mock-transfected cells) was “about 60 fold”. Moreover, the “p21 levels increase relative to untreated cells” value in series [3] (100 nM TREM, vs untreated cells) was “about 60 fold”. The “rescue of cellular p21 protein levels (FIG. 4)” value in series [3] (Western blotting) is “able to rescue p21 protein levels”.
